From the nanobody polyreactivity screen of Harvey et al. (2022)

Assay: yeast display, Sf9 membrane polyspecificity reagent, FACS + sequencing; frameworks hold sequencing errors
Summary of the method: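 Using colony PCR, genes from sorted yeast display clones were amplified, then sequenced on MiSeq at 2 × 250 and filtered by CDR length. The clones had been stained with 10% biotinylated, detergent-solubilized Sf9 membrane reagent for 1 hour at 4 °C and sorted by FACS into low and high (top ~1%) gates on anti-HA and streptavidin fluorescence. Polyreactivity labels come from the gate of origin.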

Sequence | polyreactivity (PSR sort gate)
QVQLVESGGGLVQAGGSLRLSCAASGRIFPTYTMGWYRQAPGKERELVAHINRGGGSTYYADSVKGRFTISRDNAKYTVYLQMNSLKPEDTAVYYCAVDTYAYRGVSYWSERTYYYWGQGTQVTVSS | low polyreactivity
QVQLVESGGGLVQAGGSLRLSCAASGRIFPVNAMGWYRQAPGKERELVARISWRGGTYYADSVKGRFTISRDNAKNTVYLQMNSLKPEDTAVYYCAATLPSTSYWYHYGYWGQGTQVTVSS | high polyreactivity
QVQLVESGGGLVQAGGSLRLSCAASGRIFPVYAMGWYRQAPGKERELVATISYSGSSTYYADSVKGRFTISRDNAKNTVYLQMNSLKPEDTAVYYCNADAFGPPGVQYYYWGQGTQVTVSS | low polyreactivity
QVQLVESGGGLVQAGGSLRLSCAASGRIFPVYVMGSYREAPGKEREFVASISWRGGSTFYADSVKGRFTISRDNAKNTVYLQMNSLKPEDTAVYYCAADYWSSDSSRGTMYYWGQGTQVTVSS | low polyreactivity
QVQLVESGGGLVQAGGSLRLSCAASGRIFPWNAMGWYRQAPGKERELVAAISFSAGRTYYADSVKGRFTISRDNAKTTVYLQMTSLKPEDTAVYFCTKASYWGSGFDYWGQGTQVTVSS | low polyreactivity
QVQLVESGGGLVQAGGSLRLSCAASGRIFPWNDMGWYRQAPGKERELVAAITYRGGRTYYADSVKGRFTISRDNAKNTVYLQMNSLKPEDTAVYYCAKTRYFSVGPHWDYYYWGQGTQVTVSS | high polyreactivity
QVQLVESGGGLVQAGGSLRLSCAASGRIFPWYAMGWYRQAPGRVREFLAVISRSGGSTYYADSVKGRFTISRDNAKNTVYLQMNSLKPEDTAVYYCAADGKFEYDYWGQGTQVTVSS | low polyreactivity
QVQLVESGGGLVQAGGSLRLSCAASGRIFPYCAMGWYRQAPGKEREFVAAITSSGGSTYYADSVKGRFTISRDNAKNTVYLQMNSLKREDTAVYFCFAVRHYALYAGRPYDYWGQGTEVTVSS | low polyreactivity
QVQLVESGGGLVQAGGSLRLSCAASGRIFPYNAMGWSRQAPGKERELVASITSGGGSTYYADSVKGRFTISRDNAKNTVYLQMKSLKPEDTAVYYCSTRGYAWSSDKFGYWGQGTQVTVSS | high polyreactivity
QVQLVESGGGLVQAGGSLRLSCAASGRIFPYNAMGWYRHAPGKERELVAAITWSGGRTYYADSVKGRFTISRDNAKNTVYLQMNSLKPEDTAVYYCAASYRGRTNDYWGQGTQVTVSS | high polyreactivity
QVQLVESGGGLVQAGGSLRLSCAASGRIFPYNAMGWYRQAPGKERELVAAISGRGGSTYYADSVKGRFTISRDNAKNTVYLQMNSLKPEDTAVYYCAKRYVYPGAKHRFRGYDYWGQGTQVTVSS | high polyreactivity
QVQLVESGGGLVQAGGSLRLSCAASGRIFPYYAMGWYRQAPGKERELVAAISLSGGSTYYADSVKGRFTISRDNAKNTVYLQMNSLKPEDTAVYYCNAVASTYGYYWYPGLGYDYWGQGTQVTVSS | low polyreactivity
QVQLVESGGGLVQAGGSLRLSCAASGRIFPYYAMGWYRQAPGKERELVAAISQSGGRTYYADSVKGRFTISRDNAKNTVYLQMNSLKPEDTAVYYCIAYTYSSGYDYWGQGTQVTVSS | high polyreactivity
QVQLVESGGGLVQAGGSLRLSCAASGRIFPYYAMGWYRQAPGKERELVAAISRSGGRTYYADSVKGRFTISRDNAKNTVYLQMNSLKPEDTAVYYCATPSKALPPHCRAILDYWGQGTQVTVSS | high polyreactivity
QVQLVESGGGLVQAGGSLRLSCAASGRIFPYYAMGWYRQAPGKERELVATISTAGSTNYADSVKGRFTISRDNAKNTVYLQMNSLKPEDTAVYYCATRNTWYHRGYDYWGQGTQVTVSS | low polyreactivity
QVQLVESGGGLVQAGGSLRLSCAASGRIFPYYDMGWYRQAPGKERELVAGITTSGGTTYADSVKGRFTISRDNAKNTVYLQMNSLKTEDTAVYYCNKLRLRLSRWTYDYWGHGTQVTVSS | low polyreactivity
QVQLVESGGGLVQAGGSLRLSCAASGRIFQFYAMGWYRQAPGKERELVAAITTGGSTKYADSVKGRFTISRDNAKNTVYLQMNSLKPEDTAVYYCAARAHYYVYRPGIRRYDYWGQGTQVTVSS | high polyreactivity
QVQLVESGGGLVQAGGSLRLSCAASGRIFQFYTMGWYRQAPGKERELVASISSAGSTNYADSVKGRFTISRDNAKNTVYLQMNSLKPEDTAVYYCRYTYYWMGYWGQGTQVTVSS | high polyreactivity
QVQLVESGGGLVQAGGSLRLSCAASGRIFQGYAMGWYRQAPGKERELVASIRTGGTTNYADSVKGRFTISRDNAKNTVYLQMNRLKPEDTAVYYCNRGYYSYYGGYYYWGQGTQVTVSS | high polyreactivity
QVQLVESGGGLVQAGGSLRLSCAASGRIFQGYVMGWYRQAPGKERELVAAITTGGSTYYADSVKGRFTISRDNAKNTVYLQMNSLKPEDTAVYYCNAVVYVSGYNPYIFGYWGQGTQVTVSS | low polyreactivity
QVQLVESGGGLVQAGGSLRLSCAASGRIFQKYAMGWYRQAPGKERELVAVITGRGGSTYYADSVKGRFTISRDNAKNTVFLLMNSLKKEDTAVYYCASVPGYWGQGTQVTVSS | high polyreactivity
QVQLVESGGGLVQAGGSLRLSCAASGRIFQLYAMGWYRLAPGKERELVAVISSGDRTYYADSVKGRFTISRDNAKNTVYLQMNSLKPEDTAVYYCAALGWHSGGSRWHGEYDYWGQGTQVTVSS | low polyreactivity

Sequence | polyreactivity (PSR sort gate)
QVQLVESGGGLVQAGGSLRLSCAASGRIFQLYAMGWYRQAPGKERELVAANAWSGGSTYYADSVKGRFTISRDNAKNSVYLQMNSLKPEDTAVYDCAVEGYHGSRRYYYWGQGTQVTVSS | high polyreactivity
QVQLVESGGGLVQAGGSLRLSCAASGRIFQQNAMGWYRQAPGKERELVAAISSRGGSTYYADSVKGRFTISRDNAKNTVYLQMNSLKPEDTAVYYCARQYQSYRYRGYDYWGQGTQVTVSS | low polyreactivity
QVQLVESGGGLVQAGGSLRLSCAASGRIFQQNGMGWYRQAPGKERELVAGINSGVGTNYADSVKGRFTISRDNAKNTVYLQRNSLKPEDTAVYYCAKSQPSYSGDRDYWGPGTQVTVSS | low polyreactivity
QVQLVESGGGLVQAGGSLRLSCAASGRIFQRNAMGWYRLAPGKERELVAAITSTGVRTYYADSVKGRFTISRDNAKNTVYLQLNSLKPEDTAVYYCAVRGERRYIYDYWGQGTQVTVSS | high polyreactivity
QVQLVESGGGLVQAGGSLRLSCAASGRIFQRNVMGWYRQAPGKERELVASITGGGTTNYADSVKGRFTISRDNAKNTVYLQMNSLKPEDTAVYYCAKGYGASNDPGYVRKRYGYWGQGTQVTVSS | low polyreactivity
QVQLVESGGGLVQAGGSLRLSCAASGRIFQTYTMGWYRQAPGKERELVARITGGDSTYYADSVKGRFTISRDNAKNTVYLQMNSLKPEDTAVYYCAGEVWSYWGTFNYWGQGTQVTVSS | low polyreactivity
QVQLVESGGGLVQAGGSLRLSCAASGRIFQWNAMGWYRQAPGKERELVATISSRGGSTYYADSVKGRFTISRDNANNTVYLQMNSLKPEDTAVYYCAARYYAKYRSYDYWGLGTQVTVSS | high polyreactivity
QVQLVESGGGLVQAGGSLRLSCAASGRIFQYNAMGWYRQAPGKERELVAAISNSDSTNYADSVKGRFTISRDNAKNTDYLQLNRVKPEDTAVYYCARRYYFYRWVIPDYDYWGQGTQVTVSS | low polyreactivity
QVQLVESGGGLVQAGGSLRLSCAASGRIFQYNVMGWYRKAPGKERELVASISDGVGTNYADSVKGRFTISRDNAKNTVYLQMNSLKPEDTAVYYCARDLDPGYQYTGPYDYWGQGTQVTVSS | low polyreactivity
QVQLVESGGGLVQAGGSLRLSCAASGRIFQYNVMGWYRQAPGKERELVAAISSGGNTYYADSVKGRFTISRDNAKNTVNLPMNSLKPEDTAVYYCAADHYVPWPNYDYDYWGQGTQVTVSS | low polyreactivity
QVQLVESGGGLVQAGGSLRLSCAASGRIFQYYAMGWYRPAPGKEREFVAAISDSGSNTYYADSVMGRFTISRDNAKNTVYLQMNSLKPEDTAVYYSAALYATRALFYYWGQGTQGTVSS | low polyreactivity
QVQLVESGGGLVQAGGSLRLSCAASGRIFQYYAMGWYRQAPGKERELVAAISSRGGSTSYADSVKGRFTISRDKAKNTVYLQMNSLKPEDTAVYYCNAKSRISYWYDYWGQGTQVTVSS | high polyreactivity
QVQLVESGGGLVQAGGSLRLSCAASGRIFQYYAMGWYRQAPGKERELVAAITRSGGRTYYADSVKGRFTISRDNAKNTVYLQMYSLKPEDTAVYYCAASQRYSVIYYGFSEYDYWGQGTQVTVSS | high polyreactivity
QVQLVESGGGLVQAGGSLRLSCAASGRIFQYYVMGWYRQAPGKERELVAAITSGGGTKYADSVKGRFTISRDNAKNTVYLQMIRLKPEDTAVYYCAAAWFDQYSRYDYWGQCTQVTVSS | low polyreactivity
QVQLVESGGGLVQAGGSLRLSCAASGRIFRANAMGWYRQAPGKEGELVAAISRSAGSTYYADSVKGRFTISRDKAKNTVYLQMNSLKPEDTAVYYCAAVVRNPGTYDYWGQGTQVTVSS | high polyreactivity
QVQLVESGGGLVQAGGSLRLSCAASGRIFRAYAMGWYRQAPGKERELVASISRSGGSTYYADSVKGRFTISRDNSKNTVYLQMYSLKPEDTAVYYCAAVQPVGLYPRTKYYYCGQGTQVTVSS | high polyreactivity
QVQLVESGGGLVQAGGSLRLSCAASGRIFRAYVMGWYRQAPGKEREYVAAITRSGGSTYYADSVKGRFTISRDNAKNTVYLQMNSLKPEDTAVYYCAAPVYLYGTVGRGDYWGQGTQVTVSS | high polyreactivity
QVQLVESGGGLVQAGGSLRLSCAASGRIFRDYGMGWYRQAPGKERELVAAINTSGRTYYADSVKGRFTISRDNAKNTVYLQMNSLKPEDTAVYYCATTSRELGELRIFDYWGQGSQVTVSS | low polyreactivity
QVQLVESGGGLVQAGGSLRLSCAASGRIFRFYAMGWSSQAPGKERELVAAISTSGRTNYADSVKGRFTISRDNAKNTVYLQMNSLKPEDTAVYYCAAGTVLQGWSGAYGYWGQGTQVTVSS | high polyreactivity
QVQLVESGGGLVQAGGSLRLSCAASGRIFRFYAMGWYRHPPGKERELVAAIRRGGSTTYADSVKGRFTISRDNAKNTVYLQMNSLKPEDTAVYYCAATQYYRGYDYWGQGTQVTVSS | high polyreactivity
QVQLVESGGGLVQAGGSLRLSCAASGRIFRFYAMGWYRPAPGKERELVAAISSRGGSTYYADSVKGRFTISRDNAKNTDYFQMNSLKPEDTAVYYCNAYGSTSQMDYWGQGTQVTVSS | high polyreactivity
